Experimental data from paper PMC4513230 (2015).

B1: eIF2∙GTP∙Met-tRNAi ternary complex (TC), wild-type eIF2 (complex)
chain 1: MSTSHCRFYENKYPEIDDIVMVNVQQIAEMGAYVKLLEYDNIEGMILLSELSRRRIRSIQKLIRVGKNDVAVVLRVDKEKGYIDLSKRRVSSEDIIKCEEKYQKSKTVHSILRYCAEKFQIPLEELYKTIAWPLSRKFGHAYEAFKLSIIDETVWEGIEPPSKDVLDELKNYISKRLTPQAVKIRADVEVSCFSYEGIDAIKDALKSAEDMSTEQMQVKVKLVAAPLYVLTTQALDKQKGIEQLESAIEKITEVITKYGGVCNITMPPKAVTATEDAELQALLESKELDNRSDSEDDEDESDDE
chain 2: MSSDLAAELGFDPALKKKKKTKKVIPDDFDAAVNGKENGSGDDLFAGLKKKKKKSKSVSADAEAEKEPTDDIAEALGELSLKKKKKKTKDSSVDAFEKELAKAGLDNVDAESKEGTPSANSSIQQEVGLPYSELLSRFFNILRTNNPELAGDRSGPKFRIPPPVCLRDGKKTIFSNIQDIAEKLHRSPEHLIQYLFAELGTSGSVDGQKRLVIKGKFQSKQMENVLRRYILEYVTCKTCKSINTELKREQSNRLFFMVCKSCGSTRSVSSIKTGFQATVGKRRRM
chain 3: MSDLQDQEPSIIINGNLEPVGEPDIVEETEVVAQETQETQDADKPKKKVAFTGLEEDGETEEEKRKREFEEGGGLPEQPLNPDFSKLNPLSAEIINRQATINIGTIGHVAHGKSTVVRAISGVQTVRFKDELERNITIKLGYANAKIYKCQEPTCPEPDCYRSFKSDKEISPKCQRPGCPGRYKLVRHVSFVDCPGHDILMSTMLSGAAVMDAALLLIAGNESCPQPQTSEHLAAIEIMKLKHVIILQNKVDLMREESALEHQKSILKFIRGTIADGAPIVPISAQLKYNIDAVNEFIVKTIPVPPRDFMISPRLIVIRSFDVNKPGAEIEDLKGGVAGGSILNGVFKLGDEIEIRPGIVTKDDKGKIQCKPIFSNIVSLFAEQNDLKFAVPGGLIGVGTKVDPTLCRADRLVGQVVGAKGHLPNIYTDIEINYFLLRRLLGVKTDGQKQAKVRKLEPNEVLMVNIGSTATGARVVAVKADMARLQLTSPACTEINEKIALSRRIEKHWRLIGWATIKKGTTLEPIA

What was measured:
[1] = system: 40S ribosomal subunit, Rps5-E144R;eIF1;eIF1A;eIF2 WT; assay: EMSA kinetics (Kd = koff/kon); settings: methionylated; T7 transcript; 30 mM Hepes-KOH pH 7.4, 100 mM KOAc, 3 mM Mg(OAc)2, 2 mM DTT, 26°C; 1 nM [35S]-Met-tRNAi, 200-250 nM eIF2, 1 uM eIF1 and eIF1A, 100 uM GDPNP (Kd assays), mRNA …
[2] = system: 40S ribosomal subunit, Rps5-R148E;eIF1;eIF1A;eIF2 WT; assay: EMSA (native gel); settings: methionylated; T7 transcript; 30 mM Hepes-KOH pH 7.4, 100 mM KOAc, 3 mM Mg(OAc)2, 2 mM DTT, 26°C; 1 nM [35S]-Met-tRNAi, 200-250 nM eIF2, 1 uM eIF1 and eIF1A, 100 uM GDPNP (Kd assays), mRNA …
[3] = system: 40S ribosomal subunit, WT Rps5;eIF1;eIF1A;eIF2 WT; assay: EMSA (native gel); settings: methionylated; T7 transcript; 30 mM Hepes-KOH pH 7.4, 100 mM KOAc, 3 mM Mg(OAc)2, 2 mM DTT, 26°C; 1 nM [35S]-Met-tRNAi, 200-250 nM eIF2, 1 uM eIF1 and eIF1A, 100 uM GDPNP (Kd assays), mRNA …
[4] = system: 40S ribosomal subunit, Rps5-E144R;eIF1;eIF1A;eIF2 WT; assay: EMSA (native gel); settings: methionylated; T7 transcript; 30 mM Hepes-KOH pH 7.4, 100 mM KOAc, 3 mM Mg(OAc)2, 2 mM DTT, 26°C; 1 nM [35S]-Met-tRNAi, 200-250 nM eIF2, 1 uM eIF1 and eIF1A, 100 uM GDPNP (Kd assays), mRNA …
[5] = system: 40S ribosomal subunit, Rps5-R148E;eIF1;eIF1A;eIF2 WT; assay: EMSA kinetics (dissociation); settings: methionylated; T7 transcript; 30 mM Hepes-KOH pH 7.4, 100 mM KOAc, 3 mM Mg(OAc)2, 2 mM DTT, 26°C; 1 nM [35S]-Met-tRNAi, 200-250 nM eIF2, 1 uM eIF1 and eIF1A, 100 uM GDPNP (Kd assays), mRNA …
[6] = system: 40S ribosomal subunit, WT Rps5;eIF1;eIF1A;eIF2 with eIF2beta-S264Y (SUI3-2); assay: EMSA kinetics (dissociation); settings: methionylated; T7 transcript; 30 mM Hepes-KOH pH 7.4, 100 mM KOAc, 3 mM Mg(OAc)2, 2 mM DTT, 26°C; 1 nM [35S]-Met-tRNAi, 200-250 nM eIF2, 1 uM eIF1 and eIF1A, 100 uM GDPNP (Kd assays), mRNA …
[7] = system: 40S ribosomal subunit, Rps5-R148E;eIF1;eIF1A;eIF2 with eIF2beta-S264Y (SUI3-2); assay: EMSA kinetics (dissociation); settings: methionylated; T7 transcript; 30 mM Hepes-KOH pH 7.4, 100 mM KOAc, 3 mM Mg(OAc)2, 2 mM DTT, 26°C; 1 nM [35S]-Met-tRNAi, 200-250 nM eIF2, 1 uM eIF1 and eIF1A, 100 uM GDPNP (Kd assays), mRNA …
[8] = target: 40S·eIF1·eIF1A complex assembled with Rps5-R148E mutant 40S subunits (yeast (S. cerevisiae), UniProt P26783 1-225; P32911 1-108; P38912 1-153, R148E)

Row | Molecule | binding signal (fold lower affinity than WT 40S) [1] | Kd [2] [nM] | Kd [3] [nM] | Kd [4] [nM] | binding signal (fold higher koff than WT 40S) [5] | binding signal (fold lower koff than with WT eIF2) [6] | binding signal (fold higher koff than WT 40S) [7] | Kd [8] [nM]
1 | initiator Met-tRNAi | 40 | < 1 | < 1 | < 1 | 2 | 3 | 4 | 
2 | B1 |  |  |  |  |  |  |  | 101
